Assay results published in paper PMC10580936.
Positions count from the first letter of the chain named.

Tests used:
[1] = system: T1, His-FepR wt (Listeria monocytogenes EGD-e), ORF:2866136e; assay: EMSA; conditions: […] (25 mM Tris, pH 5.5), 0.15 mM BSA, 2.5 mM EDTA, 10% glycerol, 20 mM DTT, 5 min at 25 C
T1 sequence: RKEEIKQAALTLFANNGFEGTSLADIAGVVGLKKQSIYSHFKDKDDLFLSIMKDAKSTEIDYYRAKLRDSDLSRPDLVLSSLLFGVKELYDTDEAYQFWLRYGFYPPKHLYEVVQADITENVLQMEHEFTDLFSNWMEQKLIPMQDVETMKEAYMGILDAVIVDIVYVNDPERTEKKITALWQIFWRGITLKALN

[2] = system: T2, His-FepR L24F L23F (Listeria monocytogenes EGD-e), ORF:2866136e; assay: EMSA; conditions: […] (25 mM Tris, pH 5.5), 0.15 mM BSA, 2.5 mM EDTA, 10% glycerol, 20 mM DTT, 5 min at 25 C
T2 sequence: T1 sequence with L23F

| Sequence | binding [1] | binding [2] |
| --- | --- | --- |
| CATTCCACTCCTCTCACAAAAACTGACGAACGTTCGTAAGTCATTTTCTCATGAAAAAAATTCTTTGTCAACAAAAAAATCCACTCTTTTAAAAGAGTGGATTCATGGATTTATTTTTCTTCTAAAAATTCGCTAATCAATTCGTATGTC (double strand) [PfepR G-27T] | no binding |  |
| CATTCCACTCCTCTCACAAAAACTGACGACCGTTCGTAAGTCATTTTCTCATGAAAAAAATTCTTTGTCAACAAAAAAATCCACTCTTTTAAAAGAGTGGATTCATGGATTTATTTTTCTTCTAAAAATTCGCTAATCAATTCGTATGTC (double strand) [PfepR wt] | binds | no binding |
